Assay results reported in US7228238B2, “Algorithmic design of peptides for binding and/or modulation of the functions of receptors and/or other proteins” (Cielo Institute, Inc., priority 2000, dated 2007).
Values belong to the substance of their own block, whether it stands above or below them.

Assays:
[1] = target: T1, human long isoform D2DA receptor (Homo sapiens, UniProt P14416); experiment: external acidification rate (EAR) by microphysiometry, response to dopamine, D2DA receptor-transfected mouse LtK cell system; details: for MODULATORY EFFECT LtK: significance class of effect on EAR response to dopamine ≈1 μM; for MODULATORY EFFECT LtK / DIRECT EFFECT LtK / influence on dopamine-induced increment in total milli-pH units (EAR response to dopamine) / ρ of one-tailed t-test paired within chamber, peptide influence on EAR response to dopamine: peptide 1 μM; for MODULATORY EFFECT LtK / DIRECT EFFECT LtK: D2DA-transfected LtK cells; for DIRECT EFFECT LtK: significance class of effect on EAR; for influence on dopamine-induced increment in total milli-pH units (EAR response to dopamine) / ρ of one-tailed t-test paired within chamber, peptide influence on EAR response to dopamine: LtK system, dopamine ≈1 μM
Method: (§2) Both cell systems were stably transfected with human long isoform D2DA receptor cDNA, which had been isolated from a human striatal cDNA library, sequenced and subcloned into the expression vector pRC/RSV (Invitrogen). […] Both systems were grown to confluence in DMEM containing 10% FBS. The cells were serum-starved 18–24 hours prior to use, and then assayed for EAR using a microphysiometer (Cytosensor; Molecular Devices, Sunnyvale, Calif.) in low buffering DMEM with 0.1% culture grade BSA.
(§3) The determination of EAR by microphysiometry involves a proton-sensitive silicon semiconductor photocurrent-driven sensor which measures changes in EAR resulting from effector-evoked alterations in cellular glycolytic and respiratory energy metabolism and/or alterations in sodium-hydrogen exchanges across cellular membranes. Protonic H^+, generated by such energy metabolism or exchanges, neutralizes the charge on the surface of the semiconductor, reducing the photocurrent produced at a rate linearly related to H^+production.
(§4) The microphysiometer monitors pH in flow-through chambers containing the receptor-transfected cells. Generally, if the cells lines used are adherent cell lines, the cells are seeded into “capsule cups”. If the cell lines are non-adherent cell lines, then the cells are immobilized in a fibrin matrix. For all microphysiometer runs, modified low buffering DMEM containing 0.1% BSA is pumped across the cells at a rate of approximately 100 μL/min, during which time the pH of the microenvironment surrounding the sensor surface is maintained at a relatively constant value. The measurement of the acid output rate of the cells, termed the acidification rate, is made when the fluid flow is periodically halted to allow buildup of acidic metabolites in the chamber, resulting in an alteration in the pH of the fluid. The pH is measured in millivolts, and converted to milli-pH units. The changes in pH are expressed as changes in milli-pH units per minute following the linear, time-dependent buildup of H^+during intermittent periods of pump arrest followed by washout. […] Ligand induced, receptor-mediated increases in cell metabolic and Na^+—H^+membrane regulatory activity is seen as an increase in the acidification rate.
(§5) Small Kolmogorov-Smirnov distances supported the assumption of normality in all of the data sets, so within chamber-paired, one-tailed t-tests with a significance criterion of ρ=0.05 were used.

[2] = target: T1, human long isoform D2DA receptor; experiment: external acidification rate (EAR) by microphysiometry, response to dopamine, D2DA receptor-transfected CHO cell system; details: peptide 1 μM; for MODULATORY EFFECT CHO: significance class of effect on EAR response to dopamine ≈1 μM; for MODULATORY EFFECT CHO / DIRECT EFFECT CHO: D2DA-transfected CHO cells; for DIRECT EFFECT CHO: significance class of effect on EAR
Method: as §2, §3, §4, §5

[3] = target: T2, human muscarinic M1 receptor (Homo sapiens, UniProt P11229); experiment: EAR test system, response to carbachol, M1 receptor-transfected CHO-K1 cells; assay type: cell-based; details: for MODULATORY EFFECT: significance class of effect on EAR due to carbachol
T2 construct: expressed in transfected cells; host or cells: CHO-K1 cells; expression vector pcDNA3; calcium phosphate method; geneticin selection
T2 sequence (P11229 1-460): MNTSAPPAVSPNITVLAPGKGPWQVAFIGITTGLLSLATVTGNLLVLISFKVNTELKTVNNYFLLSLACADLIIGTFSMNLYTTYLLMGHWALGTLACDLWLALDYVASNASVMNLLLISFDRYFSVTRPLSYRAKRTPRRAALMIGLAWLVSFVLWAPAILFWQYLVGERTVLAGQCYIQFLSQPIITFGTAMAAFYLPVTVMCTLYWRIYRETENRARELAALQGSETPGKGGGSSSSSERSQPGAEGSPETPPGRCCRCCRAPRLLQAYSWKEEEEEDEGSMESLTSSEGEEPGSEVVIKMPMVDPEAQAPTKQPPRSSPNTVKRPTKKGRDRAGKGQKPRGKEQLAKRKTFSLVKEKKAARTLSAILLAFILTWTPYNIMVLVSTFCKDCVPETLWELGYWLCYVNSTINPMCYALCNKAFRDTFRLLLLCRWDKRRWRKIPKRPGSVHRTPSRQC
Method: (§1) Peptides derived from receptor protein systems other than the D2DA receptor were also tested for their effects on their respective receptors. For the human muscarinic M1 receptor, CHO cells were transfected with the muscarinic M1 receptor cDNA derived from a human cDNA library essentially as described by Buckley et al. (Mol. Pharmacol. 1989 35:469–476). Briefly, the coding region of the M1 receptor was obtained from a human cDNA library and cloned into the expression vector pcDNA3 (Invitrogen, San Diego, Calif.). CHO-K1 cells were transformed with the construct, using the calcium phosphate method. Stably expressing transformants were obtained in the presence of 250 μg/ml geneticin. Transformed cell lines expressing the human NGF receptor also were obtained. The effects of the peptides derived by the methods of the present invention on the activities of the corresponding receptors in the transformed cell lines were evaluated in the same manner as described above for the D2DA-targeted algorithmically derived peptides, using the EAR test system.

human NGF receptor = experiment: EAR test system, transformed cell line expressing the NGF receptor, response to NGF; assay type: cell-based; details: for MODULATORY EFFECT: significance class of change in EAR response to NGF; for MODULATORY EFFECT / DIRECT EFFECT: NGF receptor cell line; for DIRECT EFFECT: significance class of change in EAR; for effect on EAR response to NGF: NGF receptor inhibition assay, PC-12 cells
Method: as §1
The hydrophobic wavelength of a peptide containing L-amino acids is the same as a peptide containing D-amino acids in which the sequence is inverted. Such “retro-inverso” peptides have been previously described (Chorev, M. and Goodman, M. (1995) Trends Biotechnol. 13:438–445), but their use as mode-matched binding peptides has never before been contemplated. A retro-inverso peptide containing D-amino acids and having the sequence […] was synthesized (SEQ ID NO:97). This sequence of this peptide is inverted from that of peptide of SEQ ID NO:27, used in the NGF receptor inhibition assay. […] The peptide of SEQ ID NO:97 was tested in the same assay as the L-amino acid, forward sequence peptide of SEQ ID NO: 27.

[4] = CHO cell system, dopamine ≈1 μM

T1 sequence (P14416 whole entry, canonical isoform): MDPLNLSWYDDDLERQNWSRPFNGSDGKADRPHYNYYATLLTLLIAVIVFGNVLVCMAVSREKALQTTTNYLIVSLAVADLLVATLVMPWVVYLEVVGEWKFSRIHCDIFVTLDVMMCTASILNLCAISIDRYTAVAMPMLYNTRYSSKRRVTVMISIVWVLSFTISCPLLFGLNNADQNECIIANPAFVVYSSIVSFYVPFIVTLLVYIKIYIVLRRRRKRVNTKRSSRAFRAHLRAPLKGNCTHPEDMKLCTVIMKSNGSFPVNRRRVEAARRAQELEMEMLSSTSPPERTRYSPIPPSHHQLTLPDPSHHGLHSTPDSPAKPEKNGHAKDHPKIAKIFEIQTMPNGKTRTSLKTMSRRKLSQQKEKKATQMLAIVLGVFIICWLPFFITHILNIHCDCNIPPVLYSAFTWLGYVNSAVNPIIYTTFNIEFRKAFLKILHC

MODULATORY EFFECT LtK [1]: *** (***ρ ≦ 0.001)
DIRECT EFFECT LtK [1]: *** (***ρ ≦ 0.001)
MODULATORY EFFECT CHO [2]: *** (***ρ ≦ 0.001)
DIRECT EFFECT CHO [2]: *** (***ρ ≦ 0.001)
Substance: 1 (SHQRWEYKGVNCIVY) [compound 1]

MODULATORY EFFECT LtK [1]: *** (***ρ ≦ 0.001)
Substance: 3 (ERNRKPYRPKNKYLL) [compound 3]

MODULATORY EFFECT LtK [1]: *** (***ρ ≦ 0.001)
Substance: 4 (ERNKLNYKNKNKYIL) [compound 4]

MODULATORY EFFECT LtK [1]: * (*0.01 < ρ ≦ 0.05)
MODULATORY EFFECT CHO [2]: *** (***ρ ≦ 0.001)
Substance: 5 (SHTAYHWMSCGKIVI) [compound 5]

MODULATORY EFFECT LtK [1]: *** (***ρ ≦ 0.001)
Substance: 7 (SHQAWRYKNVNCYVI) [compound 7]

DIRECT EFFECT LtK [1]: *** (***ρ ≦ 0.001)
DIRECT EFFECT CHO [2]: ** (**0.001 < ρ ≦ 0.01)
Substance: 8 (GETAFRYVNCNVYVYI) [compound 8]

Substance: 13 (FSFQCKSINYEALGY) [compound 13]
DIRECT EFFECT ([3]; significance class of effect on EAR): ** (** 0.001 < ρ ≦ 0.01)
MODULATORY EFFECT [3]: ** (** 0.001 < ρ ≦ 0.01)

Substance: 14 (FSFGVKSWQYHALGY) [compound 14]
MODULATORY EFFECT [3]: * (* 0.01 < ρ ≦ 0.05)

Substance: 15 (ITFTVKGLTLAAFTY) [compound 15]
MODULATORY EFFECT [3]: *** (*** ρ ≦ 0.001)

Substance: 16 (ISFNKCTWSFERYSL) [compound 16]
MODULATORY EFFECT [3]: * (* 0.01 < ρ ≦ 0.05)

Substance: 17 (FNLSVKQWNYRAYNL) [compound 17]
MODULATORY EFFECT [3]: ** (** 0.001 < ρ ≦ 0.01)

Substance: 23 (DLCRSARSDIEVTEY) [compound 23]
MODULATORY EFFECT (human NGF receptor): *** (*** ρ ≦ 0.001)
DIRECT EFFECT (human NGF receptor): ** (** 0.001 < ρ ≦ 0.01)

Substance: 24 (RFVASAATEIEVNRL) [compound 24]
MODULATORY EFFECT (human NGF receptor): ** (** 0.001 < ρ ≦ 0.01)

Substance: 25 (HYCASADPRIHKNAL) [compound 25]
MODULATORY EFFECT (human NGF receptor): *** (*** ρ ≦ 0.001)

Substance: 26 (DFVDGAAGRLHKGEY) [compound 26]
MODULATORY EFFECT (human NGF receptor): ** (** 0.001 < ρ ≦ 0.01)

Substance: 27 (DIKATEATDIEKGHL) [compound 27]
MODULATORY EFFECT (human NGF receptor): *** (*** ρ ≦ 0.001)

Substance: 28 (RFVDNDATDIEKGRI) [compound 28]
MODULATORY EFFECT (human NGF receptor): *** (*** ρ ≦ 0.001)
DIRECT EFFECT (human NGF receptor): * (* 0.01 < ρ ≦ 0.05)

Substance: 29 (RFVRGDRNHFDCGEL) [compound 29]
MODULATORY EFFECT (human NGF receptor): *** (*** ρ ≦ 0.001)
DIRECT EFFECT (human NGF receptor): * (* 0.01 < ρ ≦ 0.05)

Substance: 30 (HFVRNERTHFDVSAL) [compound 30]
MODULATORY EFFECT (human NGF receptor): * (* 0.01 < ρ ≦ 0.05)
DIRECT EFFECT (human NGF receptor): * (* 0.01 < ρ ≦ 0.05)

influence on dopamine-induced increment in total milli-pH units (EAR response to dopamine) [1]: statistically significant activation
Substance: ERNRKPLRPKNKYLI [E . . . PL]

influence on dopamine-induced increment in total milli-pH units (EAR response to dopamine) [1]: statistically significant activation
Substance: ERNRKPYRPKNKYLL [E . . . PY]

Substance: H-DIKATEATDIEKGHL-OH [SEQ ID NO:27]
effect on EAR response to NGF (human NGF receptor): significantly down-regulated

influence on dopamine-induced increment in total milli-pH units (EAR response to dopamine) [1]: significantly potentiated
ρ of one-tailed t-test paired within chamber, peptide influence on EAR response to dopamine [1]: 0.0009
influence on dopamine-induced increment in total milli-pH units (EAR response to dopamine) [2, 4]: significantly potentiated
ρ of one-tailed t-test paired within chamber, peptide influence on EAR response to dopamine [2, 4]: < 0.0001
Substance: H-SHQRWEYKGVNCIVY-OH [SEQ ID NO:1]
EAR dose response curves ([1]; LtK cells, dopamine 10^−8.5M to 10^−5.5M, peptide 10 nM to 3 μM): asymptotic sigmoidal kinetics, suggestive of positive cooperativity

influence on dopamine-induced increment in total milli-pH units (EAR response to dopamine) [1]: did not significantly potentiate
ρ of one-tailed t-test paired within chamber, peptide influence on EAR response to dopamine [1]: > 0.05
influence on dopamine-induced increment in total milli-pH units (EAR response to dopamine) [2, 4]: did not significantly potentiate
Substance: H-THQAFHYCNKQCLVI-OH (cysteine pairing not given here) [SEQ ID NO:2]

Substance: LHGKEIDTAETAKID [SEQ ID NO:97]
effect on EAR response to NGF (human NGF receptor): also down-regulated the EAR response of PC-12 cells to NGF, to an extent comparable
